Results taken from the RNAGym collection of RNA variant scans (doi:10.7554/elife.80360).

B1: Hammerhead Ribozyme (parent)
chain: ACCGGAUGUGCUUUCCGGUCUGAUGAGUCCGUGAGGACGAAACAG

Variants of: B1
Assay: self-cleavage, relative activity (ratio to wild type); higher = more cleavage; co-transcriptional

Variant | self-cleavage
G4A U21G | 0.374
A1G U24C | 1.6
A23U G27U | 0.279
G4C G5A | 0.365
C16A U32C | 1.09
U19G G35U | 0.397
U12C U32A | 1.26
A1G U19A | 0.511
C11A G33C | 1.27
U7C U19G | 0.413
G5U G36C | 0.32
G25A C43U | 0.341
G4U C15A | 0.425
A6C C30G | 0.437
C3U C30U | 0.929
G17C A41C | 0.272
U9C A23C | 0.283
U19A C43G | 0.346
C16A U28C | 0.722
U19A A40G | 0.307
C15A A26U | 0.446
A6U A42C | 0.238
U14C C43A | 0.279
U12C A44C | 0.611

Variant | self-cleavage
C16A G27C | 0.571
A1C C29A | 0.31
G8A G10U | 1.31
U21C U24G | 1.07
C11U A41G | 0.386
C11A G31U | 1.08
A6G A40G | 0.213
G27C G36A | 0.392
U14C A40U | 0.354
U24A U28G | 0.694
G17C U19A | 0.335
U14A C29U | 0.557
G27A C30G | 0.458
G4C C20A | 0.244
G4C C20G | 0.266
U7C G33U | 0.755
U13A A41C | 0.368
G5A G10C | 1.16
G8C C38A | 0.8
A26G | 0.379
G10C A34C | 0.424
U28A A34G | 0.516
A1C A23G | 0.326
U21C A42G | 0.323

Variant | self-cleavage
U21G C38U | 0.374
G33C G45C | 0.46
A23C U32C | 0.509
G4A A34G | 0.378
G39C G45C | 0.368
G4U G39U | 0.29
U12A U13A | 1.23
U28C G45U | 0.727
A26G A42C | 0.231
U9G G39A | 0.307
A6U A26U | 0.588
U14G C29G | 0.737
G27C U28G | 0.389
G8U G33A | 0.938
G31A G39C | 0.377
U9G U21A | 0.405
U9G U21G | 0.406
C15A G45A | 0.498
C2U C29U | 1.29
G27A G39C | 0.285
U12G G39U | 0.319
G8C G10U | 1.25
C3G A6G | 0.294
C38G A42G | 0.321

Variant | self-cleavage
U32G A41G | 0.299
G18U A34U | 0.51
G18U A34G | 0.493
A6C C15U | 0.659
A23G G39A | 0.301
U7G C38U | 1.4
U7G C38G | 0.521
C2U C43U | 0.441
U13A A34G | 1.04
U28A C29A | 0.682
U24G G33A | 1.18
U12A A26G | 0.424
A23G C43U | 0.269
U13G C38U | 0.724
G10C G33U | 0.934
A1G G27C | 0.879
U28A G36A | 0.339
C2U G33C | 1.06
U9C U21A | 0.496
U9A C15A | 0.699
G18U A40U | 0.345
U13C G31C | 1.13
A1C G45U | 0.437
G22C C30U | 0.36

Variant | self-cleavage
C30A G36U | 0.639
G4A U14G | 0.542
C15A A37C | 0.403
A41U A42G | 0.35
C11G C43A | 0.311
G10U G31C | 0.998
U9G C43U | 0.339
U12C C29A | 0.589
U19A G22C | 0.356
G35U A41G | 0.33
U13G A44G | 1.7
G18A A26U | 0.423
G22U U28A | 0.326
U13C G25U | 0.367
C20G C30A | 0.335
C20G C30G | 0.37
C2A C11U | 0.431
C16G A41C | 0.376
C16G A41U | 0.393
U7C G31C | 0.803
U19C G25C | 0.378
G4A G10C | 0.414
A41C C43A | 0.361
G25A A42C | 0.262

Variant | self-cleavage
C15G C30A | 0.653
C15U A23C | 0.36
G36A A40C | 0.319
A6G G33A | 0.844
U13A C20A | 0.446
U14A A23C | 0.345
G27U A44C | 0.305
U7G G25C | 0.363
A1C G31U | 0.561
A34C A41G | 0.367
U13A C15U | 0.907
G8A U13A | 1.04
C30A C38U | 0.743
U13G G33A | 0.959
A6G C20U | 0.432
C3U C29A | 0.593
U7G G36U | 0.735
U32G G45U | 0.587
C29U A42U | 0.367
A6C A41U | 0.383
A6C U32C | 0.838
A23U A42G | 0.375
G17U G33A | 0.862
A1G G22U | 0.408

Variant | self-cleavage
C3G G8C | 0.452
G35U A44G | 0.943
G31U C43U | 0.637
U21A A23C | 0.474
G17U G31U | 0.834
U21A U32C | 0.508
G4C A23C | 0.299
U7A U32C | 0.797
C2G G33U | 0.535
G10U A44G | 1.57
C20U A34U | 0.356
C3G G33U | 0.591
A1G C20A | 0.54
G10A A26C | 0.666
U12G G36C | 0.679
A23G G35U | 0.316
C16U U19C | 0.572
U14G A40G | 0.366
G10U U28C | 1.18
A26G G35A | 0.286
C20A | 0.541
C11A G39U | 0.29
G4U G17C | 0.34
